Substitutions are numbered along the chain they refer to.
Experiments:
[1] = target: T1, DesKCSTAB:DesR-REC complex (phosphatase complex) (Bacillus subtilis, UniProt O34757, S150I/S153L/R157I); assay: X-ray crystallography; conditions: Mg2+, BeF3-; pH 8.5; CA (ATP-binding) domain; 2.79 A
T1 construct: gene desK; DesK cytoplasmic portion with DesR receiver domain; His-tag and TEV site on each, co-expressed in E. coli BL21(DE3); 2:2 complex; with Transcriptional regulatory protein DesR

CheY (Escherichia coli) = CheY (Escherichia coli) (UniProt P0AE67); conditions: cited from earlier work
Sequence of CheY (Escherichia coli) (P0AE67 2-129): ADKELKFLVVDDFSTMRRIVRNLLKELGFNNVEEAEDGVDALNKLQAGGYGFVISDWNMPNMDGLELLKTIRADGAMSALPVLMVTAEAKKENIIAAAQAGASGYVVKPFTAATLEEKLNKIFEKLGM

[2] = target: DesKC_(STAB), phosphatase-constitutive mutant of the cytoplasmic portion of the histidine kinase DesK (B. subtilis); assay: SEC-SAXS; purified DesK-DesR complexes at 10 mg/mL in 50 mM Tris.HCl pH 8.0, 300 mM NaCl, Superdex 75 5/150 GL, beamline SWING; theoretical curves of crystal models fitted with CRYSOL, mixtures with OLIGOMER
[3] = target: T2, DesKC_(H188V), mutant of the cytoplasmic portion of DesK trapped in the phosphatase state (B. subtilis, UniProt O34757 154-370, H188V); assay: ITC; VP-ITC; DesR-REC (350-400 µM) injected into the cell with DesKC variants (25-30 µM); 15°C; 20 mM Tris.HCl pH 8, 0.3 M NaCl, 10 mM MgCl2, 0.5 mM AMP-PNP; duplicate; fitted to a two independent sequential site model; conditions: both partners purified
T2 construct: DesK, histidine kinase of Bacillus subtilis; cytoplasmic portion (DesKC); also called DesK_(H188V)
T2 sequence: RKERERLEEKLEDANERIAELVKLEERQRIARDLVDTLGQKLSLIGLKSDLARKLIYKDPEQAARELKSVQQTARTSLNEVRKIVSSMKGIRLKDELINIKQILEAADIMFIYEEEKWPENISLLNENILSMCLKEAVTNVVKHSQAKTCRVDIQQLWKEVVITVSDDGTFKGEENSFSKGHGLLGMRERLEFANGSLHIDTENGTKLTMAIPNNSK

[4] = target: T3, DesKC_(H188E), free protein used in ITC (B. subtilis, UniProt O34757 154-370, H188E); assay: as above; conditions: both partners purified
T3 construct: DesK, histidine kinase of Bacillus subtilis; cytoplasmic portion (DesKC); Kept apart from m2 because it stood alone in the calorimeter cell, whereas m2 was co-expressed and purified with DesR-REC; It may be the same polypeptide as m2
T3 sequence: T2 sequence with V35E

[5] = target: T2, DesKC_(H188V), mutant of the …; assay: as above; set-up: unit not given here; conditions: both partners purified
[6] = target: T3, DesKC_(H188E), free protein used in ITC; assay: as above; set-up: unit not given here; conditions: both partners purified

T1 sequence (O34757 150-370 S150I/S153L/R157I, one chain of several): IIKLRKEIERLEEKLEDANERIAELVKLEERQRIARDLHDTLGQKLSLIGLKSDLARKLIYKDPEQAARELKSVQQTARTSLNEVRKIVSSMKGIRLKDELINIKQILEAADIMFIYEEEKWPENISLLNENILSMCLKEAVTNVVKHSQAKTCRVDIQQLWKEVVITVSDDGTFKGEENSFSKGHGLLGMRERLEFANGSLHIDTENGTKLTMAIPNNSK

Molecule: Nc1ncnc2c1ncn2[C@@H]1O[C@H](COP(=O)(O)OP(=O)(O)CP(=O)(O)O)[C@@H](O)[C@H]1O [AMP-PCP]
- X-ray crystallography [1]: one AMP-PCP (ATP analogue) moiety is bound to each CA domain

Molecule: CheA (from UniProt P07363)
- Kd (CheY (Escherichia coli)): 30 nM

B1: DesR-REC, free protein used as ligand in ITC (domain or fragment, B. subtilis)
chain: MISIFIAEDQQMLLGALGSLLNLEDDMEVVGKGTTGQDAVDFVKKRQPDVCIMDIEMPGKTGLEAAEELKDTGCKIIILTTFARPGYFQRAIKAGVKGYLLKDSPSEELANAIRSVMNGKRIYAPELMEDLYSEA
notes: DesR, response regulator of Bacillus subtilis, REC domain; Probably from pQE80-DesR-REC in E. coli TOP10F', the plasmid and host that the methods name for functional assays (Trajtenberg et al., 2014)
- stoichiometry N (RR monomers per HK dimer) [2]: 2
- stoichiometry N [3]: 2 RR monomers per HK dimer
- stoichiometry N [4]: 1 RR monomers per HK dimer
- dH, first printed row (two sequential sites fit) [5]: 15000
- dH, second printed row (two sequential sites fit) [5]: 14000
- dH, first printed row (two sequential sites fit) [6]: 22000
- dH, second printed row (two sequential sites fit) [6]: 21000

Reference: publication PMC5231405 (eLife, 2016)
